B1: His6-EGFP-KRIT1(WT) FERM domain (417-736) (domain or fragment, human, UniProt O00522 417-736, looked up)
chain: KPYEKVRIYRMDGSYRSVELKHGNNTTVQQIMEGMRLSQETQQYFTIWICSENLSLQLKPYHKPLQHVRDWPEILAELTNLDPQRETPQLFLRRDVRLPLEVEKQIEDPLAILILFDEARYNLLKGFYTAPDAKLITLASLLLQIVYGNYESKKHKQGFLNEENLKSIVPVTKLKSKAPHWTNRILHEYKNLSTSEGVSKEMHHLQRMFLQNCWEIPTYGAAFFTGQIFTKASPSNHKVIPVYVGVNIKGLHLLNMETKALLISLKYGCFMWQLGDTDTCFQIHSMENKMSFIVHTKQAGLVVKLLMKLNGQLMPTERNS

In test [1] the target is T1, biotinylated HEG1 cytoplasmic tail (a.a. 1274-1381) (UniProt Q9ULI3 1274-1381, biotin on the in vivo biotinylation peptide tag).
T1 sequence (looked up): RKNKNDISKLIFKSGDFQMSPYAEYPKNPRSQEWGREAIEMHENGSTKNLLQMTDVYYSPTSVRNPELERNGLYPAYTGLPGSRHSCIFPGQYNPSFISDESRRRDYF
Kind of test: flow cytometry on beads.

Test [2] deals with B1. Kind of test: flow cytometry on beads.

In test [1], B1 yielded an EC50 of 32.4 nM. That is a double-digit nanomolar value.
In turn, SRRRDYF (peptide, UniProt Q9ULI3 1375-1381, looked up) [non-biotinylated HEG1 7-mer peptide (residues 1375-1381)] yielded an IC50 in test [2] of 410 nM.

For the origin of these results see doi:10.1101/744821 (bioRxiv, 2019).
